The source of these data is patent US20210380702A1.

The assay deals with recombinant human PD-L1 (amino acids 19-239 of NP_054862.1) expressed with a C-terminal human IgG1 Fc tag (human). Briefly: SPR (Biacore 3000): 100 nM hPD-L1-hFc + 500 nM mAb on captured hPD-1-mFc, 25C. Background: Surface plasmon resonance follows binding to a sensor surface in real time, without labels.
Sequence of recombinant human PD-L1 (amino acids 19-239 of NP_054862.1) expressed with a C-terminal human IgG1 Fc tag (human) (chain, as listed by the source limits assumed): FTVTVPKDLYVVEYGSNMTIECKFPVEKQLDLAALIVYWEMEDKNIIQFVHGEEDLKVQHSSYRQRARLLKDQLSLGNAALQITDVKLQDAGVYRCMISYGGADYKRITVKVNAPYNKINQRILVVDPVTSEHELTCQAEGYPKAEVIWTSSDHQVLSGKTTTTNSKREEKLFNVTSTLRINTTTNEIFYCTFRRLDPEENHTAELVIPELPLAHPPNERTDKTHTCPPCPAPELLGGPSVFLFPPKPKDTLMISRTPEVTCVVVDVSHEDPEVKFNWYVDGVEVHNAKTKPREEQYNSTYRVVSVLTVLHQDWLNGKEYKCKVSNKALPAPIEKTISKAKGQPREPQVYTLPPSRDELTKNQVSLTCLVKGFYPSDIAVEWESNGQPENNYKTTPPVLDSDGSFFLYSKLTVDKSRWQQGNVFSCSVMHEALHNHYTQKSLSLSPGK

For “Isotype control antibody (Table 13, Biacore assay of human Fc antibodies)”, the % Blocking was determined as 0%.
